# Molecular target: the molecule itself
# Test: EPR spectroscopy (spin-spin interaction of singly labeled protein, with spin dilution); bound to preformed lipid tubules (10% cholesterol/40% phosphatidylcholine/40% galactocerebrosides/10% PIP2); 10 uM protein with 60 ug tubes in 100 ul, 10 min at RT, pelleted at 152,800g; 20 mM Hepes pH 7.4, 150 mM NaCl; fully labeled compared with 33% labeled and 67% unlabeled protein
protein,measurement,value
"rat epsin 1 ENTH domain (1-164), spin-labeled at residue 14 (domain or fragment, MTSL spin label (R1 side chain) on the cysteine introduced at position 14, cysteine-less background (C96S) with a single cysteine at position 14; same construct as the crystallography study (PDB 1H0A); also called V14; source: E. coli BL21 (DE3), purified (glutathione-Sepharose, thrombin, ion exchange, gel filtration), labeled with MTSL; not shown: GST, N-terminal, cleaved) GSPGIHMSTSSLRRQMKNICHNYSEAEIKVREATSNDPWGPSSSLMSEIADLTYNVVAFSEIMSMIWKRLNDHGKNWRHVYKAMTLMEYLIKTGSERVSQQSKENMYAVQTLKDFQYVDRDGKDQGVNVREKAKQLVALLRDEDRLREERAHALKTKEKLAQTATASSAA",binding result,binds
